Experimental data taken from article PMC6065357 (2018).

Target: T1, pro-brain-derived neurotrophic factor (proBDNF, residues 19-249, furin sites changed to AA) (UniProt P21237 19-249)
T1 chain: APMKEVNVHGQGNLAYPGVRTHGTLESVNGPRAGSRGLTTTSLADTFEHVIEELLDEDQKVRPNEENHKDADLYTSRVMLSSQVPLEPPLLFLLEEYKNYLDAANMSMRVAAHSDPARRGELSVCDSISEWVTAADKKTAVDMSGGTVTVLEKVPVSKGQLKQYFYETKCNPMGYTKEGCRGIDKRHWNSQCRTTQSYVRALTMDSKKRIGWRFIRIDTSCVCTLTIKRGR
Assay: SPR; second site of two-site fit, possibly sSorCS2 oligomerization

Kd: ~30 µM
B1: mouse SorCS2 mature extracellular segment (sSorCS2, residues 117-1072) (receptor)
chain: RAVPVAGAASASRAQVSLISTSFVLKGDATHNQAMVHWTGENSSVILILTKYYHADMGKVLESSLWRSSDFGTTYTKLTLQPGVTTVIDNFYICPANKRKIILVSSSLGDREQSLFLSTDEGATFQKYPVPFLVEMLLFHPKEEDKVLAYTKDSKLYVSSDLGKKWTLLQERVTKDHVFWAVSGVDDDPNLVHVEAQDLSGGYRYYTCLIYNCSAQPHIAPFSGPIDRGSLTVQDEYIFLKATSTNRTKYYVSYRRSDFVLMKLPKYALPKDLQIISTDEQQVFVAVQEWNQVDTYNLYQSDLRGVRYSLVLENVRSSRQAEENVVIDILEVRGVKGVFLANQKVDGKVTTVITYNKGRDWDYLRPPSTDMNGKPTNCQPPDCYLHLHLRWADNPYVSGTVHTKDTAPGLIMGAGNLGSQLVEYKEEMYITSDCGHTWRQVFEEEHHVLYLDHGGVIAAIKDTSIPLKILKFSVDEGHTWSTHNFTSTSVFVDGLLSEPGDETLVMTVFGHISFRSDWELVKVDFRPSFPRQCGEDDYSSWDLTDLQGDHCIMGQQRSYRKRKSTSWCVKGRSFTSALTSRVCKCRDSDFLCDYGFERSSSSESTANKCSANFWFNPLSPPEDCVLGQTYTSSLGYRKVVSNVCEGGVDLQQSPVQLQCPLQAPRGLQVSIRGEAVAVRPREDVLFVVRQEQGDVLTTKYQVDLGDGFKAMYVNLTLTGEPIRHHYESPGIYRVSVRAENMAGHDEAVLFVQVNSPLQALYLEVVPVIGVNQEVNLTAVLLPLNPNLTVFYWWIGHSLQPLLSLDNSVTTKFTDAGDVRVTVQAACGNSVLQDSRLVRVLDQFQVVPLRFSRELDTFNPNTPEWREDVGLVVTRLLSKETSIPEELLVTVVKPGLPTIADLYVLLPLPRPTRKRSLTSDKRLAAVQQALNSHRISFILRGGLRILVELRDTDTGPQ
